Experimental data as given in article PMC3616968, “Post-Transcriptional Regulation of the Trypanosome Heat Shock Response by a Zinc Finger Protein”.

Target: T1, ZC3H11-119 (Trypanosoma brucei, UniProt Q57W26 1-119)
T1 sequence: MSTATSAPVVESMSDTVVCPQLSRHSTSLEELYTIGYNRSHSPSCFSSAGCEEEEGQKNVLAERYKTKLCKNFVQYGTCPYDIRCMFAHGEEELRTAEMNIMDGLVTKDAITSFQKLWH
Assay: EMSA; limiting probe titration; no binding; 20 mM Tris-HCl pH 8.0, 50 mM NaCl, 10 uM ZnCl2, 0.01% IGEPAL CA-630, 0.1 mg/ml tRNA, 10 ug/ml heparin (legends: 5 ug/ml or 10 mg/ml), room temperature 30 min; 100 pmol protein, 1 pmol RNA
Details: protein: recombinant; tags: His10 (called His-tagged)

B1: U23 (ssRNA)
RNA: UUUUUUUUUUUUUUUUUUUUUUU
Does B1 bind?
Result: no binding
